Source: patent US20230078601A1 (CLEVELAND CLINIC FOUNDATION, published 2023)

Legend:
[1] = target: T1, recombinant extracellular domain of human AMHR2 (rhAMHR2-ED), C-terminal hexahistidine-tagged fusion protein (human, UniProt Q16671 18-149); assay: SPR, Biacore 3000, 25 C; 4D12G1 immobilised by amine coupling, rhAMHR2-ED as analyte, Langmuir 1:1 fit
T1 construct: also called human AMHR2-ED
T1 sequence: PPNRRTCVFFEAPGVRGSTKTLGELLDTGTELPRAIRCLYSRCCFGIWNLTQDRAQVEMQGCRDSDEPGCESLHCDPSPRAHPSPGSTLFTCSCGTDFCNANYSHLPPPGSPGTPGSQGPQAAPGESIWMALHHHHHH
Description: Briefly, the 4D12G1 mAb at 300 nM was diluted in sodium acetate at pH 5.0 and covalently immobilized on carboxymethylated dextran over a gold surface using an aqueous solution of N-ethyl-N′-(3-dimethylaminopropyl)carbodiimide (EDC) and N-hydroxysuccinimide (NHS; Sigma-Aldrich). The rhAMHR2-ED receptor analyte at different concentrations (10-1-103 nM) in a running buffer containing 10 mM HEPES at pH 7.4, 150 mM NaCl, 3 mM EDTA, and 0.005% P20 detergent was captured with a […] flow over the immobilized 4D12G1 ligand. Regeneration of flow cells was performed using 10 mM glycine (Sigma-Aldrich) at pH 1.7. All sensorgrams were corrected by subtracting the low signal of the control flow cell and the dissociation curve of the 4D12G1 mAb. The KD values, taking into account affinity and avidity, were calculated using a Langmuir 1:1 fitting model and BIAevaluation 3.2 software (GE Healthcare Bio-Sciences).
An overlapping series of 16-mer peptides spanning the entire 132 amino acid sequence of human AMHR2-ED (FIG. 3A) with moving single amino acid shifts were plated for direct ELISA testing using the 4D12G1 mAb as primary antibody. […]

[2] = target: T2, 11-26; assay: direct ELISA on plated overlapping 16-mer peptides of AMHR2-ED, 4D12G1 as primary antibody
T2 construct: overlapping 16-mer of human AMHR2-ED; also called p11-26; AMHR2-ED 11-26 16-mer peptide
T2 peptide: EAPGVRGSTKTLGELL
Description: (§1) Competitive ELISAs were used to determine the AMHR2-ED sequence recognized by the 4D12G1 mAb. A set of overlapping 16-mer peptides spanning the entire 132 amino acid sequence of human AMHR2-ED was generated. Each peptide shifted by one amino acid and all cysteine residues were replaced by serine to avoid disulfide bond formation (Thermo Fisher). Individual 16-mer peptides were plated in solid phase in microtiter wells, increasing concentrations of each 16-mer peptide were incubated with the 4D12G1 mAb in liquid phase, and ELISAs were performed as described above. The binding site of the 4D12G1 mAb was confirmed by competitive ELISA using overlapping peptides containing alanine substitutions for each amino acid spanning the immunoreactive region of AMEIR2-ED. The substituted peptides were used in liquid phase with the 4D12G1 mAb to determine binding inhibition to rhAMHR2-ED in solid phase. The AMHR2-ED binding sequence of the 4D12G1 mAb and the critical AMHR2-ED residues for such binding were confirmed by SPOT peptide arrays. Peptides spanning the AMHR2-ED 9-40 immunoreactive region and ranging from 4-16-mers in length were synthesized >90% pure on cellulose membranes (JPT Peptide Technologies, Berlin, Germany), treated overnight with blocking buffer (Thermo Fisher), followed by treatment with the 4D12G1 mAb at 1.0 μg/ml for 3 hours at room temperature, followed by three washes with PBS containing 0.01% Tween-20 (Bio-Rad). The membranes were then treated with a 1:10,000 dilution of an HRP-conjugated rabbit anti-mouse IgG (MilliporeSigma) followed by three washes with PBS containing 0.01% Tween-20 (Bio-Rad). Bound antibody was detected using the HyGLO chemiluminescence system (Thomas Scientific).
(§2) An overlapping series of 16-mer peptides spanning the entire 132 amino acid sequence of human AMHR2-ED (FIG. 3A) with moving single amino acid shifts were plated for direct ELISA testing using the 4D12G1 mAb as primary antibody. […] To determine amino acids recognized by the 4D12G1 mAb, an overlapping series of peptides spanning the immunoreactive sequence comprising AMHR2-ED 13-30 were synthesized with alanine substitutions at each N-terminal residue or with glycine substitutions for any native N-terminal alanine.

[3] = target: T3, 12-27; assay: as above
T3 construct: overlapping 16-mer of human AMHR2-ED; also called p12-27; AMHR2-ED 12-27 16-mer peptide
T3 peptide: APGVRGSTKTLGELLD
Description: as §1, §2

[4] = target: T4, 13-28; assay: as above
T4 construct: overlapping 16-mer of human AMHR2-ED; also called p13-28; AMHR2-ED 13-28 16-mer peptide
T4 peptide: PGVRGSTKTLGELLDT
Description: as §1, §2

[5] = target: T5, 14-29; assay: as above
T5 construct: overlapping 16-mer of human AMHR2-ED; also called p14-29; AMHR2-ED 14-29 16-mer peptide
T5 peptide: GVRGSTKTLGELLDTG
Description: as §1, §2

[6] = target: T6, 15-30; assay: as above
T6 construct: overlapping 16-mer of human AMHR2-ED; also called p15-30; AMHR2-ED 15-30 16-mer peptide
T6 peptide: VRGSTKTLGELLDTGT
Description: as §1, §2

[7] = target: T7, 16-31; assay: as above
T7 construct: overlapping 16-mer of human AMHR2-ED; also called p16-31; AMHR2-ED 16-31 16-mer peptide
T7 peptide: RGSTKTLGELLDTGTE
Description: as §1, §2

[8] = target: T8, 17-32; assay: as above
T8 construct: overlapping 16-mer of human AMHR2-ED; also called p17-32; AMHR2-ED 17-32 16-mer peptide
T8 peptide: GSTKTLGELLDTGTEL
Description: as §1, §2

Kd [1]: 0.119 nM | binding result [2]: binds | binding result [3]: binds | binding result [4]: binds | binding result [5]: binds | binding result [6]: binds | binding result [7]: binds | binding result [8]: binds
B1: 4D12G1 mAb (antibody, IgG1, V domains shown)
VH: DVKLVESGGGLVKLGGSLKLSCAASGFTFSRYFMSWVRQTPEKRLELVAAINSDGGRTYYPDTVKGRFTISRDNAKNTLYLQMSSLKSEDTALYYCTRHIYSYYEDYFDYWGQGTTLTVSS
VL: DVVMTQTPLSLPVSLGDQASISCRSSQSLVHSNGNTYLHWYLQKPGQSPKLLIYKVSKRFSGVPDRFSGSGSGTDFTLKISRVEAEDLGVYFCSQSTHVYTFGGGTKLEIK
notes: also called 4D12G1 IgG1 mAb
